In this test the target is T1, C1q isolated from mouse serum (mouse, UniProt P98086 23-245; P14106 26-253; Q02105 30-246).
T1 construct: complement C1q subcomponent chain A (C1qA), mouse; complement C1q subcomponent chain B (C1qB), mouse; complement C1q subcomponent chain C (C1qC), mouse; also called purified C1q; copies: 6 + 6 + 6
Kind of test: ELISA; NP1, NP2 or PTX3 coated (10 µg/ml in PBS, overnight 4 °C), blocked with 4% BSA in PBS-T; C1q 5.6–45 µg/ml in PBS, 1 h at RT; bound C1q detected with anti-C1qb antibody. The following applies: both partners purified. Background: An ELISA detects its analyte on a solid surface through an enzyme-linked reagent.

T1 sequence (P98086 23-245, chain 1 of 3): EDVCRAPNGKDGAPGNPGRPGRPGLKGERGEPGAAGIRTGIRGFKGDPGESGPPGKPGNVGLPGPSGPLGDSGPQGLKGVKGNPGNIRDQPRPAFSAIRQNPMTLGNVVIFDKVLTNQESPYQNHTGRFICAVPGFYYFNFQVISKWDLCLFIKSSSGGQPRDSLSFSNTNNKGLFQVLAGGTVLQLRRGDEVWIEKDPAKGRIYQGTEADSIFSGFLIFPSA
T1 sequence (P14106 26-253, chain 2 of 3): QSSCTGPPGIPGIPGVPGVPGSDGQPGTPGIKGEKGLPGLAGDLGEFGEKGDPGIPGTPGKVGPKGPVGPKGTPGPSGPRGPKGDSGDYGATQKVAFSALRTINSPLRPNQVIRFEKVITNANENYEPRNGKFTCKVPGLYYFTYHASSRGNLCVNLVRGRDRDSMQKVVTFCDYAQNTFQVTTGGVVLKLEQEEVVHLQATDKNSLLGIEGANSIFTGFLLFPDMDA
T1 sequence (Q02105 30-246, chain 3 of 3): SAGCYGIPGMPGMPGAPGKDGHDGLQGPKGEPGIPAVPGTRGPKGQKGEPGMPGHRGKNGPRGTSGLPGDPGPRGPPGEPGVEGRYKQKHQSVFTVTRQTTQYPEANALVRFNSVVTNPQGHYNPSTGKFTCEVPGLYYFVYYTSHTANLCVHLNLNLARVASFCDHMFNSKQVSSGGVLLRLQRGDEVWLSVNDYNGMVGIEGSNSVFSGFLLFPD

B1: Recombinant human His-tagged neuronal pentraxin 1 (natural protein, UniProt Q15818 23-432, looked up)
chain: QDFGPTRFICTSVPVDADMCAASVAAGGAEELRSSVLQLRETVLQQKETILSQKETIRELTAKLGRCESQSTLDPGAGEARAGGGRKQPGSGKNTMGDLSRTPAAETLSQLGQTLQSLKTRLENLEQYSRLNSSSQTNSLKDLLQSKIDELERQVLSRVNTLEEGKGGPRNDTEERVKIETALTSLHQRISELEKGQKDNRPGDKFQLTFPLRTNYMYAKVKKSLPEMYAFTVCMWLKSSATPGVGTPFSYAVPGQANELVLIEWGNNPMEILINDKVAKLPFVINDGKWHHICVTWTTRDGVWEAYQDGTQGGSGENLAPYHPIKPQGVLVLGQEQDTLGGGFDATQAFVGELAHFNIWDRKLTPGEVYNLATCSTKALSGNVIAWAESHIEIYGGATKWTFEACRQIN
notes: neuronal pentraxin 1 (NP1), human, recombinant; see the vendor's data sheet; also called NP1; NPs (with NP2); source: bought: R&D Systems (7707-NP-050)
For the molecule B1, the binding result is “binds”.

B2: Recombinant human His-tagged neuronal pentraxin 2 (natural protein, UniProt P47972 16-431, looked up)
chain: GAQDSPAPGSRFVCTALPPEAVHAGCPLPAMPMQGGAQSPEEELRAAVLQLRETVVQQKETLGAQREAIRELTGKLARCEGLAGGKARGAGATGKDTMGDLPRDPGHVVEQLSRSLQTLKDRLESLEHQLRANVSNAGLPGDFREVLQQRLGELERQLLRKVAELEDEKSLLHNETSAHRQKTESTLNALLQRVTELERGNSAFKSPDAFKVSLPLRTNYLYGKIKKTLPELYAFTICLWLRSSASPGIGTPFSYAVPGQANEIVLIEWGNNPIELLINDKVAQLPLFVSDGKWHHICVTWTTRDGMWEAFQDGEKLGTGENLAPWHPIKPGGVLILGQEQDTVGGRFDATQAFVGELSQFNIWDRVLRAQEIVNIANCSTNMPGNIIPWVDNNVDVFGGASKWPVETCEERLLDL
notes: neuronal pentraxin 2 (NP2), human, recombinant; see the vendor's data sheet; also called NP2; NPs (with NP1); source: bought: R&D Systems (7816-NP-050)
Turning to B2, the binding result was “binds”.

The record behind these values is article PMC7897678 (Frontiers in Immunology, 2020).
